The target of assay [1] is T1, Recombinant human PD-L2-His tag (ACROBiosystems, #PD2-H5220) (human, UniProt Q9BQ51 20-219).
T1 construct: Bought protein; also called sPD-L2; human PD-L2-His tag protein; not shown: His tag
T1 sequence (looked up): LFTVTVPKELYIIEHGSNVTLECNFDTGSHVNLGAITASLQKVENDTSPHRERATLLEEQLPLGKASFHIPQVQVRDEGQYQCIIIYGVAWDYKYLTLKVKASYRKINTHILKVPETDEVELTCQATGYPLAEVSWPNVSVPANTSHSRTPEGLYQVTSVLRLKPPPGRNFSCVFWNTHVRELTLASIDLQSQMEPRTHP
Description: Octet RED96e; PD-L2-His loaded at 10 µg/ml on HIS1K sensor; sample 66,7 nM; negative control, response about zero, round fit values. As for the experimental part: (§1) FIG. 4a is a graph of Octet binding studies on sPD-L2. Recombinant human PD-L2-His tag (ACROBiosystems, #PD2-H5220) was loaded to His-sensor (HIS1 K (Anti-Penta-His)) at 10 μg/ml and the binding of each construct was evaluated by Octet RED96e.
(§2) FIG. 4c is a graph depicting the KD values of anti-CD28/sPD-1 constructs on human PD-L2-His tag protein by Octet RED96e. The equilibrium dissociation constant (KD) is calculated as the ratio koff/kₒₙ (with koff:dissociation rates, and kₒₙ:association rates).
(§3) Anti-CD28/sPD-1 antibody fusion constructs were assessed for their ability to bind PD-1 ligands, PD-L1 and PD-L2 by Octet RED96e. Recombinant human PD-L1-His tag (ACROBiosystems, #PD1-H5229) or recombinant human PD-L2-His tag (ACROBiosystems, #PD2-H5220) were loaded to His-sensor (HIS1 K (Anti-Penta-His)) at 10 μg/ml. […] FIG. 3c is a summary of affinity (measured as Kd, M) for each construct on human PD-L1. […] FIG. 4c is a summary of affinity (measured as Kd, M) for each construct on human PD-L2.

Assay [2] deals with T2, Recombinant human PD-L1-His tag (ACROBiosystems, #PD1-H5229) (human, UniProt Q9NZQ7 19-238).
T2 construct: Bought protein; also called sPD-L1; human PD-L1-His tag protein; not shown: His tag
Description: Octet RED96e; PD-L1-His loaded at 10 µg/ml on HIS1K sensor; sample 66,7 nM; negative control, response about zero, round fit values. On the procedure:
(§4) FIG. 3a is a graph of Octet binding studies on sPD-L1. Recombinant human PD-L1-His tag (ACROBiosystems, #PD1-H5229) was loaded to His-sensor (HIS1K (Anti-Penta-His)) at 10 μg/ml and the binding of each construct was evaluated by Octet RED96e.
(§5) FIG. 3c is a graph depicting the KD values of anti-CD28/sPD-1 constructs on human PD-L1-His tag protein by Octet RED96e. The equilibrium dissociation constant (KD) is calculated as the ratio koff/kₒₙ (with koff:dissociation rates, and kₒₙ:association rates).
as §3
On the technique in general: In BLI a coated tip is dipped into the sample, and binding shifts an interference pattern.

Assay [3] has as its target T2, Recombinant human PD-L1-His tag …. Description: Octet RED96e; PD-L1-His loaded at 10 µg/ml on HIS1K sensor; sample 378,8 nM. On the procedure:
as §4, §5, §3

The target in assay [4] is T1, Recombinant human PD-L2-His tag …. The assay can be described thus: Octet RED96e; PD-L2-His loaded at 10 µg/ml on HIS1K sensor; sample 75,8 nM. On the procedure: as §1, §2, §3
Assay [5] shares this target. The assay can be described thus: Octet RED96e; PD-L2-His loaded at 10 µg/ml on HIS1K sensor; sample 378,8 nM. As for the experimental part: as §1, §2, §3
Assay [6] has as its target T2, Recombinant human PD-L1-His tag …. The assay can be described thus: Octet RED96e; PD-L1-His loaded at 10 µg/ml on HIS1K sensor; sample 75,8 nM. On the procedure:
as §4, §5, §3

For assay [7] the target is unchanged. The assay can be described thus: Octet RED96e; PD-L1-His loaded at 10 µg/ml on HIS1K sensor; sample 55,6 nM. On the procedure:
as §4, §5, §3

Assay [8] has as its target T1, Recombinant human PD-L2-His tag …. Description: Octet RED96e; PD-L2-His loaded at 10 µg/ml on HIS1K sensor; sample 277,8 nM. On the procedure: as §1, §2, §3
Assay [9] addresses T2, Recombinant human PD-L1-His tag …. Description: Octet RED96e; PD-L1-His loaded at 10 µg/ml on HIS1K sensor; sample 277,8 nM. On the procedure: as §4, §5, §3
The target of assay [10] is T1, Recombinant human PD-L2-His tag …. The assay can be described thus: Octet RED96e; PD-L2-His loaded at 10 µg/ml on HIS1K sensor; sample 55,6 nM. As for the experimental part:
as §1, §2, §3

This note sets out measurements from US20250197499A1 (STEALTH IO, published 2025).

B1: Monoclonal anti-CD28 (9.3) mAb (GeneTex, #GTX14664) (antibody, V domains shown)
VH: EVKLQQSGPGLVTPSQSLSITCTVSGFSLSDYGVHWVRQSPGQGLEWLGVIWAGGGTNYNSALMSRKSISKDNSKSQVFLKMNSLQADDTAVYYCARDKGYSYYYSMDYWGQGTSVTVSS
VL: DIELTQSPASLAVSLGQRATISCRASESVEYYVTSLMQWYQQKPGQPPKLLIFAASNVESGVPARFSGSGSGTNFSLNIHPVDEDDVAMYFCQQSRKVPYTFGGGTKLEIK
notes: Bought 9.3 mAb without sPD-1 fusion; also called monoclonal antibody 9.3
B1: in assay [1], the dissociation constant (Kd) (as a rule, the concentration at which binding is half-saturated) came to 100 nM; the koff (usually a measure of how fast the partners let go of each other) worked out at 0.001 s⁻¹; the kon (usually the second-order rate constant of association) was determined as 10000 M⁻¹ s⁻¹. Also, in [2], the equilibrium dissociation constant (Kd) turned out to be 100 nM, the koff amounted to 0.001 s⁻¹ and the kon worked out at 10000 M⁻¹ s⁻¹.

B2: monovalent anti-CD28/sPD-1 wt (bispecific antibody)
light: DIELTQSPASLAVSLGQRATISCRASESVEYYVTSLMQWYQQKPGQPPKLLIFAASNVESGVPARFSGSGSGTNFSLNIHPVDEDDVAMYFCQQSRKVPYTFGGGTKLEIKRTVAAPSVFIFPPSDEQLKSGTASVVCLLNNFYPREAKVQWKVDNALQSGNSQESVTEQDSKDSTYSLSSTLTLSKADYEKHKVYACEVTHQGLSSPVTKSFNRGEC
heavy: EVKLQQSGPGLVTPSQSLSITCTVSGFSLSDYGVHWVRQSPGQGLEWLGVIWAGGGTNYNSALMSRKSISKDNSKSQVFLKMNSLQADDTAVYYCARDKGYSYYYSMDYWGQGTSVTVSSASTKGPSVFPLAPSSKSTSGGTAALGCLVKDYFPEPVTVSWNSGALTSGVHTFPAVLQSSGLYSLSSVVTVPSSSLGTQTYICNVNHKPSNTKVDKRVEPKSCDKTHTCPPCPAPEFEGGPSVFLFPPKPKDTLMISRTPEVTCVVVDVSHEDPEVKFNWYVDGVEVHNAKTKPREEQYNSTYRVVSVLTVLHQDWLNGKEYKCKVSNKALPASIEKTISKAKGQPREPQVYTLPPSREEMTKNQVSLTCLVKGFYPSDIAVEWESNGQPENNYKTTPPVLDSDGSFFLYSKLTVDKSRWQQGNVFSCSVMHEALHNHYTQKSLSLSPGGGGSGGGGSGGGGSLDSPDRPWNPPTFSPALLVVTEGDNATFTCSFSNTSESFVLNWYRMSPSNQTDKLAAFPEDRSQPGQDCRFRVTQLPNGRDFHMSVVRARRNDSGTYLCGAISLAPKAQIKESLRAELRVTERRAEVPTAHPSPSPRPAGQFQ
chain: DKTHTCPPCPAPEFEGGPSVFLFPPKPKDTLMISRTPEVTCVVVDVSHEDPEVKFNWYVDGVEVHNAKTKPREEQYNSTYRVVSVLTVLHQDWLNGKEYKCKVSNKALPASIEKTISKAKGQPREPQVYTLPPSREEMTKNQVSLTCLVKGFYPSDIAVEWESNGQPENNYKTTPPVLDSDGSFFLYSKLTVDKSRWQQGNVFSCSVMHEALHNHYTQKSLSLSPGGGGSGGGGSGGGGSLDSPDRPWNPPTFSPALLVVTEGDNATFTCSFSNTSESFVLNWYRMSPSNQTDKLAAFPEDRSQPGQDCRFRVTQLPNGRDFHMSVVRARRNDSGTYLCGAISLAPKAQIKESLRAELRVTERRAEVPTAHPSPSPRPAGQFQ
notes: also called Monovalent anti-CD28/sPD-1 Wild type structure; bispecific protein complex A:B-C-X:C'-Y
As for B2, the Kd is 35.1 nM in assay [3], 10 nM in [4], 23.7 nM in [5] and 23.3 nM in [6]. The koff in [3] is 0.0122 s⁻¹; in assay [4], 0.00283 s⁻¹; in assay [5] it was 0.00318 s⁻¹; in assay [6], 0.013 s⁻¹. For the same molecule, the on-rate constant (kon) turned out to be 348000 M⁻¹ s⁻¹ in [3], 282000 M⁻¹ s⁻¹ in [4], 134000 M⁻¹ s⁻¹ in assay [5] and 559000 M⁻¹ s⁻¹ in [6].

B3: monovalent anti-CD28/sPD-1 mut (bispecific antibody)
light: DIELTQSPASLAVSLGQRATISCRASESVEYYVTSLMQWYQQKPGQPPKLLIFAASNVESGVPARFSGSGSGTNFSLNIHPVDEDDVAMYFCQQSRKVPYTFGGGTKLEIKRTVAAPSVFIFPPSDEQLKSGTASVVCLLNNFYPREAKVQWKVDNALQSGNSQESVTEQDSKDSTYSLSSTLTLSKADYEKHKVYACEVTHQGLSSPVTKSFNRGEC
heavy: EVKLQQSGPGLVTPSQSLSITCTVSGFSLSDYGVHWVRQSPGQGLEWLGVIWAGGGTNYNSALMSRKSISKDNSKSQVFLKMNSLQADDTAVYYCARDKGYSYYYSMDYWGQGTSVTVSSASTKGPSVFPLAPSSKSTSGGTAALGCLVKDYFPEPVTVSWNSGALTSGVHTFPAVLQSSGLYSLSSVVTVPSSSLGTQTYICNVNHKPSNTKVDKRVEPKSCDKTHTCPPCPAPEFEGGPSVFLFPPKPKDTLMISRTPEVTCVVVDVSHEDPEVKFNWYVDGVEVHNAKTKPREEQYNSTYRVVSVLTVLHQDWLNGKEYKCKVSNKALPASIEKTISKAKGQPREPQVYTLPPSREEMTKNQVSLTCLVKGFYPSDIAVEWESNGQPENNYKTTPPVLDSDGSFFLYSKLTVDKSRWQQGNVFSCSVMHEALHNHYTQKSLSLSPGGGGSGGGGSGGGGSLDSPDRPWNPPTFSPALLVVTEGDNATFTCSFSNTSESFVLNWYRMSPSNQTDKLAAFPEDRSQPGQDCRFRVTQLPNGRDFHMSVVRARRNDSGTYLCSAISLAPYIQIKESLRAELRVTERRAEVPTAHPSPSPRPAGQFQ
chain: DKTHTCPPCPAPEFEGGPSVFLFPPKPKDTLMISRTPEVTCVVVDVSHEDPEVKFNWYVDGVEVHNAKTKPREEQYNSTYRVVSVLTVLHQDWLNGKEYKCKVSNKALPASIEKTISKAKGQPREPQVYTLPPSREEMTKNQVSLTCLVKGFYPSDIAVEWESNGQPENNYKTTPPVLDSDGSFFLYSKLTVDKSRWQQGNVFSCSVMHEALHNHYTQKSLSLSPGGGGSGGGGSGGGGSLDSPDRPWNPPTFSPALLVVTEGDNATFTCSFSNTSESFVLNWYRMSPSNQTDKLAAFPEDRSQPGQDCRFRVTQLPNGRDFHMSVVRARRNDSGTYLCSAISLAPYIQIKESLRAELRVTERRAEVPTAHPSPSPRPAGQFQ
notes: The sPD-1 fragments carry G124S, K131Y and A132I (numbering of full-length human PD-1); also called Mono Mut; Monovalent anti-CD28/sPD-1 Mutated structure
With B3, the Kd in assay [3] was determined as 2.17 nM; in [4] it was 1.05 nM; in assay [5] it was 1.33 nM; in [6], 1.57 nM. The koff in assay [3] came to 0.00061 s⁻¹; in assay [4], 0.000342 s⁻¹; in assay [5], 0.000183 s⁻¹; in assay [6], 0.00083 s⁻¹. In addition, the kon in [3] was determined as 281000 M⁻¹ s⁻¹; in [4] it was 324000 M⁻¹ s⁻¹; in assay [5], 138000 M⁻¹ s⁻¹; in assay [6], 528000 M⁻¹ s⁻¹.

B4: bivalent anti-CD28/sPD-1 mut (bispecific antibody, human IgG1, kappa)
light: DIELTQSPASLAVSLGQRATISCRASESVEYYVTSLMQWYQQKPGQPPKLLIFAASNVESGVPARFSGSGSGTNFSLNIHPVDEDDVAMYFCQQSRKVPYTFGGGTKLEIKRTVAAPSVFIFPPSDEQLKSGTASVVCLLNNFYPREAKVQWKVDNALQSGNSQESVTEQDSKDSTYSLSSTLTLSKADYEKHKVYACEVTHQGLSSPVTKSFNRGEC
heavy: EVKLQQSGPGLVTPSQSLSITCTVSGFSLSDYGVHWVRQSPGQGLEWLGVIWAGGGTNYNSALMSRKSISKDNSKSQVFLKMNSLQADDTAVYYCARDKGYSYYYSMDYWGQGTSVTVSSASTKGPSVFPLAPSSKSTSGGTAALGCLVKDYFPEPVTVSWNSGALTSGVHTFPAVLQSSGLYSLSSVVTVPSSSLGTQTYICNVNHKPSNTKVDKRVEPKSCDKTHTCPPCPAPEFEGGPSVFLFPPKPKDTLMISRTPEVTCVVVDVSHEDPEVKFNWYVDGVEVHNAKTKPREEQYNSTYRVVSVLTVLHQDWLNGKEYKCKVSNKALPASIEKTISKAKGQPREPQVYTLPPSREEMTKNQVSLTCLVKGFYPSDIAVEWESNGQPENNYKTTPPVLDSDGSFFLYSKLTVDKSRWQQGNVFSCSVMHEALHNHYTQKSLSLSPGGGGSGGGGSGGGGSLDSPDRPWNPPTFSPALLVVTEGDNATFTCSFSNTSESFVLNWYRMSPSNQTDKLAAFPEDRSQPGQDCRFRVTQLPNGRDFHMSVVRARRNDSGTYLCSAISLAPYIQIKESLRAELRVTERRAEVPTAHPSPSPRPAGQFQ
notes: The sPD-1 fragments carry G124S, K131Y and A132I; also called Bi Mut; Bivalent anti-CD28/sPD-1 Mutated structure
Turning to B4, the dissociation constant (Kd) in assay [7] turned out to be 1.21 nM; in [8], 0.883 nM; in assay [9] it was 1.65 nM; in assay [10], 0.774 nM. For the same molecule, the off-rate (koff) was 0.000698 s⁻¹ in assay [7], 0.000153 s⁻¹ in assay [8], 0.00055 s⁻¹ in [9] and 0.0003 s⁻¹ in [10]. The kon in [7] stood at 578000 M⁻¹ s⁻¹; in assay [8] it was 174000 M⁻¹ s⁻¹; in [9], 334000 M⁻¹ s⁻¹; in assay [10], 387000 M⁻¹ s⁻¹.
